This is an account of results in article PMC6323126 (2019).

B1: SIKE1 (recombinant, limits not stated) [human] / SLMAP (recombinant, limits not stated for the experiment) [human] (parent complex)
chain 1: MSCTIEKILTDAKTLLERLREHDAAAESLVDQSAALHRRVAAMREAGTALPDQYQEDASDMKDMSKYKPHILLSQENTQIRDLQQENRELWISLEEHQDALELIMSKYRKQMLQLMVAKKAVDAEPVLKAHQSHSAEIESQIDRICEMGEVMRKAVQVDDDQFCKIQEKLAQLELENKELRELLSISSESLQARKENSMDTASQAIK
chain 2: YSQELFQLSQYLQEALHREQMLEQKLATLQRLLAITQEASDTSWQALIDEDRLLSRLEVMGNQLQACSKNQTEDSLRKELIALQEDKHNYETTAKESLRRVLQEKIEVVRKLSEVERSLSNTEDECTHLKEMNERTQEELRELANKYNGAVNEIKDLSDKLKVAEGKQEEIQQKGQAEKKELQHKIDEMEEKEQELQAKIEALQADNDFTNERLTALQVRLEHLQEKTLKECSSLEHLLSKSGGDCTFIHQFIECQKKLIVEGHLTKAVEETKLSKENQTRAKESDFSDTLSPSKEKSSDDTTDAQMDEQDLNEPLAKVSLLKDDLQGAQSEIEAKQEIQHLRKELIEAQELARTSKQKCFELQALLEEERKAYRNQVEESTKQIQVLQAQLQRLHIDTENLREEKDSEITSTRDELLSARDEILLLHQAAAKVASERDTDIASLQEELKKVRAELERWRKAASEYEKEITSLQNSFQLRCQQCEDQQREEATRLQGELEKLRKEWNALETECHSLKRENVLLSSELQRQEKELHNSQKQSLELTSDLSILQMSRKELENQVGSLKEQHLRDSADLKTLLSKAENQAKDVQKEYEKTQTVLSELKLKFEMTEQEKQSITDELKQCKNNLKLLREKGNNKP

The variants in the assay derive from B1. Put plainly: BLI; read at the end of association (about 360 s); parent: 0.13; read off a plot. In general terms: BLI is a label-free optical method that tracks binding on a fibre tip over time.
Regarding chain 1 M43E, the response was ~0.05 nm.

In the case of chain 1 L36D, the response is ~0 nm. On to chain 1 L15D, chain 1 L19D, chain 1 L36D, chain 1 M43E, for which the response was ~0.02 nm. In the case of chain 1 L15D it was ~0.045 nm. Then chain 1 L19D, with ~0.045 nm.
